Numbering of substitutions follows the chain as printed. Numbers in names are those of the source.

One assay addresses Aβ1-40 synthetic peptide (UniProt P05067 672-711). Briefly: ELISA.
A further assay has as its target Aβ1-42 synthetic peptide (UniProt P05067 672-713). Briefly: ELISA.

Sequence of Aβ1-42 synthetic peptide (P05067 672-713): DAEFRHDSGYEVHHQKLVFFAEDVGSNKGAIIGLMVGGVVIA
Sequence of Aβ1-40 synthetic peptide (P05067 672-711): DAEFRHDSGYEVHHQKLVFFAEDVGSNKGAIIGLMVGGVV

B1: wild type human cystatin C (other)
chain: SSPGKPPRLVGGPMDASVEEEGVRRALDFAVGEYNKASNDMYHSRALQVVRARKQIVAGVNYFLDVELGRTTCTKTQPNLDNCPFHDQPHLKRKAFCSFQIYAVPWQGTMTLSKSTCQDA
With B1, the Kd with Aβ1-40 synthetic peptide turned out to be 16.4 nM; in the assay with Aβ1-42 synthetic peptide it was 10.6 nM.

B2: urinary cystatin C (Calbiochem Biosciences) (other)
chain: B1 chain
B2: the equilibrium dissociation constant (Kd) with Aβ1-40 synthetic peptide came to 9 nM; with Aβ1-42 synthetic peptide it was 6.6 nM.

B3: variant human cystatin C (L68Q, HCHWA-I variant) (other)
chain: B1 chain with L68Q
As for B3, the Kd worked out at 9.2 nM with Aβ1-40 synthetic peptide and 5.9 nM with Aβ1-42 synthetic peptide.

For the origin of these results see patent US7790673 (dated 2010).
